Results on one substance are retold here after paper PMC11212984.

“And” between values parts separate entries of the source, which are not always exact repeats. Identical values can stand only once.

In the test the target is ERGU-1::GFP (C. elegans ERGU-1, Y87G2A.13, with GFP fused to its C-terminus) (C. elegans). As to the kind of experiment: SDS-PAGE western blot.

In general, stoichiometry N refers to the number of molecules, sites or subunits per partner or assembly. In the case of “ERGU-1::GFP (C. elegans ERGU-1, Y87G2A.13, with GFP fused to its C-terminus) (natural protein)”, the stoichiometry N is 2 and 4.
